This passage reports Kd, koff and kon results from patent US20100261620A1 (published 2010).

Residue numbers refer to the chain shown, from its start.

The target of assay [1] is T1, human CD147 His-tagged N-terminal domain (human, UniProt P35613-2 20-117).
T1 construct: also called N-terminal human CD147; EMMPRIN; not shown: His tag
T1 chain: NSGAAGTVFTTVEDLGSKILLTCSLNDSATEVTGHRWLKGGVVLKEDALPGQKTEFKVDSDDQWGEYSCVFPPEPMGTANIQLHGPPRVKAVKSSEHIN
The experiment in a line: SPR, CD147 coupled to the surface. A general note: Surface plasmon resonance follows binding to a sensor surface in real time, without labels.

For a further assay, the target named is IL-13 (Homo sapiens (Human), UniProt P35225 35-146, limits assumed). The experiment in a line: Biacore.
Sequence of IL-13 (P35225 35-146 limits assumed): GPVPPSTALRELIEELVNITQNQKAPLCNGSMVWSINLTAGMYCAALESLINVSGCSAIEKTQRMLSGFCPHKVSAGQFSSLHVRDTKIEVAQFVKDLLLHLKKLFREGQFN

B1: 4A5 Fab (Fab, V domains shown)
VH: EVQLQQSGPELVKPGASVKISCKASGYTFTDYYMNWVKQSHGKSLEWIGGINPNNGGTSYNQKFKGKATLTVDKSSSTAYMELRSLTSEDSAVYYCARNDGYRGYAMDYWGQGTSVTVSS
VL: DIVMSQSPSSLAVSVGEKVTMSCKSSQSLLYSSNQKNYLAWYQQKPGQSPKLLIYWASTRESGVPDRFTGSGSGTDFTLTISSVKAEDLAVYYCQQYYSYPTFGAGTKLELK
notes: mouse variable domains; also called 4A5 chimera; chimeric 4A5 Fab
Regarding B1, the affinity in assay [1], expressed as Kd, was 120000 pM.

B2: M482 (antibody, V domains shown)
VH: QVTLKESGPVLVKPTETLTLTCTVSGFSLSTYGMGVGWIRQPPGKALEWLAHIWWDDVKRYNPALKSRLTISKDTSKSQVVLTMTNMDPVDTATYYCARMGSDYDVWFDYWGQGTLVTVSS
VL: EIVLTQSPATLSLSPGERATLSCRASKSISKYLAWYQQKPGQAPRLLIYSGSTLQSGIPARFSGSGSGTDFTLTISSLEPEDFAVYYCQQHLDSPYTFGQGTKLEIK
notes: anti-IL-13, human IgG1; printed changes are the same as for M470
In the assay with IL-13, B2 gave a Kd of 296 pM, a koff of 0.0003 s⁻¹ and a kon of 1.02e+06 M⁻¹ s⁻¹.

B3: M460 (anti-IL-13) (antibody, V domains shown)
VH: B2 VH
VL: EIVLTQSPATLSLSPGERATLSCRASKSISKYLAWYQQKPGQAPRLLIYSGSTLQSGIPARFSGSGSGTDFTLTISSLEPEDFAVYYCQQHDYPYTFGQGTKLEIK
On to B3, for which, in the assay with IL-13, binding was characterised by a dissociation constant (Kd) of 8 pM, the koff was 8e-06 s⁻¹ and the kon was found to be 1.03e+06 M⁻¹ s⁻¹.

B4: M442 (antibody, V domains shown)
VH: B2 VH
VL: B3 VL with H91Q, Y93G
In the case of B4, in the assay with IL-13, the affinity, expressed as Kd, was 40 pM; the koff stood at 5.3e-05 s⁻¹; the kon worked out at 1.32e+06 M⁻¹ s⁻¹.

B5: M1295 (antibody, V domains shown)
VH: B2 VH with M34V, M100L
VL: B3 VL
In the assay with IL-13, B5 had a Kd of 15 pM, a koff of 1.8e-05 s⁻¹ and an association rate constant (kon) of 1.2e+06 M⁻¹ s⁻¹.

B6: M480 (antibody, V domains shown)
VH: B2 VH
VL: B3 VL with H91Q, Y93S
Consider B6, for which, in the assay with IL-13, the affinity, expressed as Kd, was 21 pM; the koff is 3.9e-05 s⁻¹; the kon was 1.86e+06 M⁻¹ s⁻¹.

B7: M1292 (antibody, V domains shown)
VH: B2 VH with M34E, M100L
VL: B3 VL
In the assay with IL-13, B7 returned an equilibrium dissociation constant (Kd) of 8 pM, a koff of 8e-06 s⁻¹ and a kon of 1.05e+06 M⁻¹ s⁻¹.

B8: M1286 (antibody, V domains shown)
VH: B2 VH with M34S, M100L
VL: B3 VL
B8: in the assay with IL-13, binding was put at a Kd of 9 pM, the koff was 1.2e-05 s⁻¹ and the kon came to 1.28e+06 M⁻¹ s⁻¹.

B9: M1375 (antibody, V domains shown)
VH: B2 VH with M34Q, M100L
VL: B3 VL
As to B9, in the assay with IL-13, binding was put at a Kd of 24 pM, the koff was 2.7e-05 s⁻¹ and the kon turned out to be 1.1e+06 M⁻¹ s⁻¹.

B10: M1268 (antibody, V domains shown)
VH: B2 VH with M34V, M100L
VL: B2 VL with L92N, D93E, S94Y
notes: anti-IL-13, human IgG1; text gives the Met positions as 34 and 100; copies: 2 + 2
In the assay with IL-13, B10 registered an equilibrium dissociation constant (Kd) of 621 pM, a koff of 0.001 s⁻¹ and a kon of 1.61e+06 M⁻¹ s⁻¹.

As usually defined, the Kd is the concentration at which binding is half-saturated. High values mean lower affinity, low ones higher affinity. As a reminder, the koff is a measure of how fast the partners let go of each other. High values mean a short-lived complex, low ones a long-lived complex. Broadly, the kon is the rate constant with which the complex forms. The low end stands for slower complex formation, the high end for faster complex formation.
